In patent CN107973850A:

Assays:
[1] = target: CHO细胞表达的CSFV石门株E2蛋白 (classical swine fever virus, Shimen strain)
[2] = target: CSFV感染细胞的E2蛋白 (CSFV石门株病毒的E2蛋白) (classical swine fever virus, Shimen strain); experiment: cell-based or functional assay

B1: 重组猪瘟病毒E2蛋白猪源化单克隆抗体rHQ06 Sw (antibody, V domains shown)
VH: QVQLQQSGGGLVQPKGSLKLSCAASGFTFNNNAMDWVRQAPGKGLEWVARIRTKSNYYATSYADSVKDRFTISRDDSQSMLYLQMNNLKTEDTAIYFCVREGYYAWFAYWGQGTLVTVSA
VL: DIVLTQTPSSLAVSIGEKVTMSCKSSQSLLYSRNQKNYLAWYQQKPGQFPKLLIYWASTRESGVPDRFTGSGSGTDFTLTISSVKAEDLAVYYCQQYYSYPYTFGGGTKLEIKR
- Kd [1]: 13.1 nM
- kon [1]: 98400 M⁻¹ s⁻¹
- 中和效价 (病毒中和试验, IFA) [2]: 12
